Results reported in patent publication US20060024786A1, “WASP and N-WASP constructs and methods of expressing such constructs” (Cytokinetics, Inc., priority 2004, published 2006).

Experiments:
Assay in all cases: cell-based or functional assay
[1] = molecular target: full length human N-WASP (Myc-N-WASP-TAP) (human)
[2] = molecular target: full length human WASP (Myc-WASP-TAP) (human)
[3] = molecular target: Arp2/3 complex (human) (UniProt P61158)

Substance	Barbed ends % of max. (after subtracting baseline) [1] [%]	Barbed ends, nM (pyrene-actin polymerization assay) [1] [nM]	EC50, nM (activation of actin polymerization) [1] [nM]	Barbed ends % of max. (after subtracting baseline) [2] [%]	Barbed ends, nM (pyrene-actin polymerization assay) [2] [nM]	EC50, nM (activation of actin polymerization) [2] [nM]	activity relative to 105 WASP (actin polymerization, EC50 comparison) [3] [times]	concentration giving maximal barbed ends (500 nM Cdc42, 2.5 nM Arp2/3, 3.5 uM actin) [3] [nM]	potency relative to the VCA/WA domain (actin polymerization, EC50 comparison) [3] [times]
GST_NCK2	78	3.5	7	50	2.6	12	–	–	–
N_GST_tev_Cdc42 GTP (bacterial GST tagged Cdc42 protein) (enzyme)	–	–	287	–	–	16	–	–	–
full length human WASP (Myc-WASP-TAP)	–	–	–	–	–	–	20	3	> 70
